Measurements as given in the nanobody polyreactivity screen of Harvey et al. (2022).

Test: yeast display, Sf9 membrane polyspecificity reagent, FACS + sequencing; frameworks hold sequencing errors
Method in brief: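 Nanobodies came from a synthetic yeast display library in Saccharomyces cerevisiae BJ5465, induced with galactose for 36–48 hours and stained for 1 hour at 4 °C with 10% biotinylated, detergent-solubilized Sf9 membrane reagent. Cells were enriched on streptavidin microbeads and then FACS-sorted, with low and high (top ~1%) gates set on anti-HA fluorescence for expression and streptavidin fluorescence for reagent binding. Each polyreactivity label reflects the gate a clone came from. Genes were amplified by colony PCR, sequenced by MiSeq 2 × 250 and filtered by CDR length.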

Row | Sequence | polyreactivity (PSR sort gate)
1 | QVQLVESGGGLVQAGGSLRLSCAASGGIFQGYAMGWYRQAPGKERELVAGITSRSGSTYYADSVKGRFTISRDNAKNTVYLQMNSLKPEDTAVYYCAVRVYRSYGYWGQGTQVTVSS | high polyreactivity
2 | QVQLVESGGGLVQAGGSLRLSCAASGGIFRGNAMGWYRQAPGKERELVAAISSSGGSTYYADSVKGRFTISRDNAKNTVYLQMNSLKPEDTAVYYCAATRYSTRFGARGYWGQGTQVTVSS | high polyreactivity
3 | QVQLVESGGGLVQAGGSLRLSCAASGGIFRINAMGWYRQAPGKERELVAAITSSVGSTYYADSVKGRFTISRDNAKNTVYLQMNSLKPEDTAVYYCAAVITRDAIVFSTEYDYWGQGTQVTVSS | low polyreactivity
4 | QVQLVESGGGLVQAGGSLRLSCAASGGIFRPYAMGWYRQSPGKEREMVAAITYNGGSTYYADSVKGRFTISRDNAKNTVYLQMNSLKPEDTGVYYCAARARSSRTYHDDYWGQGTQVTVSS | high polyreactivity
5 | QVQLVESGGGLVQAGGSLRLSCAASGGIFRYYAMGWYRQAPGKERELVAAISKSGGRTYYADSVKGRFTISRDNAKNTVYLQMNSLKPEDTAVYYCNAEYTWHSGYDYWGQGTQVTVSS | low polyreactivity
6 | QVQLVESGGGLVQAGGSLRLSCAASGGIFSFKAMGWYIQAPGKERELVAAITTRGGSTYYADSVKGRFTISRDNAKNTVYLQMNSLKPEDTAVYYCAAEGYEEFNWGQGTQVTVSS | low polyreactivity
7 | QVQLVESGGGLVQAGGSLRLSCAASGGIFSGYAMGWYRQAPGKERELVAAISRRGGSTYYADSVKGRFTISRDNAKNTVYLQMNSLKPEDTAVYYFAKAYPYTCGQVTMYYWGQGTQVTVSS | high polyreactivity
8 | QVQLVESGGGLVQAGGSLRLSCAASGGIFSLYAMGWYRQAPGKEREFVAAISFTGASTYYADSVKGRFTISRDNAKNTVYLQMNSLKPEDTAVYYCAAYWDAEGRRYTRLDYWGQGTQVTLSS | low polyreactivity
9 | QVQLVESGGGLVQAGGSLRLSCAASGGIFSSYVMGWYRQAPGKERELVAAIRWSGSSTYYADSVKGRFTISRDNAKNTVYLQMNSLKPEDTAVYYCAAYRDYGSYGSWGQGTQVTVSS | high polyreactivity
10 | QVQLVESGGGLVQAGGSLRLSCAASGGIFSYNAMGSYRQAPGKERELVATISYSGGSTFYADSVKGRFTISRDNAKNTVYLQMNSLKPEDTAVYYCARPSYTSGYQSYDYWGQGTQVTVSS | low polyreactivity
11 | QVQLVESGGGLVQAGGSLRLSCAASGGIFSYNAMGWSRQAPGKEREWVASITGSGGSTYYADSVKGRFTISRGNAKNTVYLQMNSLKPEDTAVYYCAAQGYWTYWPYLLRLYDYWGQGTQVTVSS | low polyreactivity
12 | QVQLVESGGGLVQAGGSLRLSCAASGGIFSYYAMGWYRQAPGKEREFVAAIDWGGGSTYYADSVKGRFTISRDNAKKTVYLQMNSLKPEDTAVYYCAAEIYPIGWDDYDYWGQGTQVTVSS | low polyreactivity
13 | QVQLVESGGGLVQAGGSLRLSCAASGGIFTRNDMGWYRQAPGKERELVAGISWRGGSTYYADSVKGRFTISRDNAKNTVYLQMNSLKPEDTAVYYCAADLDSDFDYWGQGTQVTVSS | low polyreactivity
14 | QVQLVESGGGLVQAGGSLRLSCAASGGIFVFYGLGWYRQAPGKERELVAAINGNGDDTYYADSVKGRFTISRDNAKNTVYLQMNSLKPEDTAVYYCAAESRGDGDGYWGQGTQVTVSS | low polyreactivity
15 | QVQLVESGGGLVQAGGSLRLSCAASGGIFWFNAMGWYRQAPGKEREFVAAITWRGGSTYYADSVKGRFTISRDNAKNTVYLQMNSLKPEDTAVYYCAATYWWHRSSGWDRVEYWGQGTQVTVSS | high polyreactivity
16 | QVQLVESGGGLVQAGGSLRLSCAASGGIFWHYTMGWYRQAPGKERELVAAITRRGGSTYYADSVKGRFTISRDNAKNSVYLQMTSLKREDTAVYYCAADFLPQSYNWYDYWGQGTQVTVSS | low polyreactivity
17 | QVQLVESGGGLVQAGGSLRLSCAASGGIFWYYAMGWYRQAPGNERELVATISTGGSTKYADSVKGRFTISRDNAKNTVYLQMNSLNPDDTAVYYCNKVFPNLYIYVVRGLIEMDYWGQGTQVTVSS | low polyreactivity
18 | QVQLVESGGGLVQAGGSLRLSCAASGGIFYGYAMGWYRQAPGKERELVASITSDGSTYADSVKGRFTISRDNAKNTVYLQMNSLKPEDTAVYYCNKEILVIVTYDYWGQGTQVTVSS | low polyreactivity
19 | QVQLVESGGGLVQAGGSLRLSCAASGGIFYGYAMGWYRQAPWKERELVAAISSTGGRTYYADSVKGRFTISRDNAKNTVYLQMNSLKPEVTAVYYCAAEDFTRQFEYWGQGTQVTVSS | low polyreactivity
20 | QVQLVESGGGLVQAGGSLRLSCAASGGIFYRNAMGWYRQAPGKERELVAAISSGGGSTYYADSVKGRFTISRDNAKNTVYLQMNSLKPEDTAVYYCARDSYHLYIQPFGYWGQGTQVTVSS | low polyreactivity
21 | QVQLVESGGGLVQAGGSLRLSCAASGGIFYRYAMGWYRQAPGKEREFVASITSSGDRTYYADSVKGRFTISRDNAKNTVYLQMNSLKPEDTAVYYCAAVYTAAWGGRYHYWGQGTQVTVSS | high polyreactivity
22 | QVQLVESGGGLVQAGGSLRLSCAASGGIIGWNAMGWYRQAPGKERELVATISWSGGSTYYADSVKGRFTISRDNAKNTVYLQMNSLKPEDTAVYYCAVARSAYWYRPAYDYWGQGTQVTVSS | high polyreactivity

Row | Sequence | polyreactivity (PSR sort gate)
23 | QVQLVESGGGLVQAGGSLRLSCAASGGIILGYAMRWYRQARGKERELVAAISRSGVSTYYADSVKGRFTISRDNAKNTVYLQMNSLKPEDTAVYYCASDYRYASDYWGLGTQVTVSS | low polyreactivity
24 | QVQLVESGGGLVQAGGSLRLSCAASGGILPKNAMGCYRQAPGKQRELVAAISTRGTSTYYADSVKGRFTISRDNAKNTVYLQMNSLKPEDTGVYYCATSRVYIGYDYWGQGTQETVSS | low polyreactivity
25 | QVQLVESGGGLVQAGGSLRLSCAASGGILYHYAMGWYRQAPGIERELVAAIRWSGGSTYYADSVKGRFTISRDNAKNTVYLQMNSLKPEDTAVYYCAADVYYYHVLDFDYWGQGTQVTVSS | low polyreactivity
26 | QVQLVESGGGLVQAGGSLRLSCAASGGILYYYAMGWYRQAPGKERELVAGISVRGGRTNYADSVKGRFTISRDNAKNTVYLQMNSLKPEDTAVYYCAAETLYTSGYGSWGQGTQVTVSS | low polyreactivity
27 | QVQLVESGGGLVQAGGSLRLSCAASGGISAFNSMGWYRQAPGKERELVAAINYRGGTTYYADSVKGRFTISRDNAKNTVYLQMNSLKPEDTAVYYCNKPYYSSTYYYWGQGTQVTVSS | low polyreactivity
28 | QVQLVESGGGLVQAGGSLRLSCAASGGIYDSYAMGWYRQAPGKEGEMVASISWSGGSTYYADSVKGRFTISRDNAKNTVYLQMNSLKPEDTAVYYCAADRAYAGRYWKGYHSALYDYWGEGTQVTVSS | low polyreactivity
29 | QVQLVESGGGLVQAGGSLRLSCAASGGLFWTYAMGWYRQAPGKERELVATITSGGSTNYADSVKGRFTISRDNAKNTVYLQMNSLKPEETAVYYCNADWWWGYGYWGQGTQVTVSS | low polyreactivity
30 | QVQLVESGGGLVQAGGSLRLSCAASGGMLPKNAMGWYRQAPGKVRELVAGISTRGTSTYYADSVKGRFTISRDNAKNTVYLQMNSLKPEDTAVYYCATSRDYIGYDYWGQGTQVTVSS | low polyreactivity
31 | QVQLVESGGGLVQAGGSLRLSCAASGGNFEWNAMGWYRQAPGKERELVAAISNTGGSTSYADSVKGRFTISRDNAKNTVYLQMNSLKTEDTAVYYCNTVNRYEFGYWGQGSQVTVSS | high polyreactivity
32 | QVQLVESGGGLVQAGGSLRLSCAASGGSYVMGWYRQAPGKERELVAAITFSGRTYYADSVKGRFTISRDNAKNTVYLQMNSLKPEDTAGYYCAARERPGFRRPLTGGYDHWGQVTQVTVSS | high polyreactivity
33 | QVQLVESGGGLVQAGGSLRLSCAASGGTFAAYAMGWYRQAPGKERELVAAIDSGGTTKYADSVKGRFTISRDNAKNTVYLQMNSLKPEDTAVYYCAKVTTGFGVETYHGKGNDYWGQGTQVTVSS | low polyreactivity
34 | QVQLVESGGGLVQAGGSLRLSCAASGGTFATYAMGWYRQAPGKERELVATIRSGGSTYYADSVKGRFTISRDNAKNTVYLQMNSLKPEDTAVYYCNARAYHKGFYRITYYYWGQGTQVTVSS | high polyreactivity
35 | QVQLVESGGGLVQAGGSLRLSCAASGGTFDVYTMGWYRQAPGKERELVAAIDNGGSTNYADSVKGRFTISRDNAKHTVYLQMNSLKPEDTAVYYCAADEVYLFWGIAEFIYDYWGQGTQVTVSS | low polyreactivity
36 | QVQLVESGGGLVQAGGSLRLSCAASGGTFEVNAMGWYRQAPGKERELVAAIDTSDGSTYYADSVKGRFTISRDNAKNTVYLQMNSLKPEDTAVYYCAAERLFRFWYSAYERYDYWGQGTQVTVSS | low polyreactivity
37 | QVQLVESGGGLVQAGGSLRLSCAASGGTFFVYMGRYRQAPGKERELVAAITGGGGTYYADSVKGRFTISRDNAKNTVYLQMNSLKPEDTAVYYCATRGATSTVPEGDSWGQGTHVTVSS | low polyreactivity
38 | QVQLVESGGGLVQAGGSLRLSCAASGGTFGAYAMGWYRQAPGKERELVAAINVGGGSTYYADSVKGRFTISRDNAKNTVYLQMNSLKPEDTAVYYCAKDLYDGYWRGDYWGQGTQVTVSS | low polyreactivity
39 | QVQLVESGGGLVQAGGSLRLSCAASGGTFGLDAMGWYRQARGKERELVARISWSSGSTYYADSVKGRFTISRDNAKNTVYLQMNSLKPEDTAVYYCATDTYGAHAFFEFDYWGQGTQVTVSS | low polyreactivity
40 | QVQLVESGGGLVQAGGSLRLSCAASGGTFGNNDMGWYRQAPGKERELVAAIRSAGTTYYADSVKGRFTISRDNAKNTVYLQMNSLKPEDTAVYYWNADTTGYWSFGFQYYGEDYWGQGTQVTVSS | low polyreactivity
41 | QVQLVESGGGLVQAGGSLRLSCAASGGTFGSNAMGWYRQAPGKERELLAAITSRGGSTSYADSVKGRFTISRDYAKNTVYLQMKSLKPEDTAVYYCASVRYYWRPYVVNFDYWGQGTQVTVSS | high polyreactivity
42 | QVQLVESGGGLVQAGGSLRLSCAASGGTFGSNTMGWYRQAPGKERELVAAITSGVSTNYADSVKGRFTISRDNAKNTVYLQMISLKPEDTAVYYCAKDLWSEEYETIITSYGFDYWGQGTQVTLSS | low polyreactivity
43 | QVQLVESGGGLVQAGGSLRLSCAASGGTFGSYAMGWSRPAPGKERELVAAIDYSGADTYYADSVKGRFTISRDNAKNTVYLQMNSLKPEDTAVYYCNAEFESGHDLDWYDYWGQGTQVTVSS | low polyreactivity
